Laboratory results reported in patent US20200405852A1 (BIOVERATIV USA, published 2020).

T1: activated human complement C1s (human, UniProt P09871 16-688)
T1 sequence: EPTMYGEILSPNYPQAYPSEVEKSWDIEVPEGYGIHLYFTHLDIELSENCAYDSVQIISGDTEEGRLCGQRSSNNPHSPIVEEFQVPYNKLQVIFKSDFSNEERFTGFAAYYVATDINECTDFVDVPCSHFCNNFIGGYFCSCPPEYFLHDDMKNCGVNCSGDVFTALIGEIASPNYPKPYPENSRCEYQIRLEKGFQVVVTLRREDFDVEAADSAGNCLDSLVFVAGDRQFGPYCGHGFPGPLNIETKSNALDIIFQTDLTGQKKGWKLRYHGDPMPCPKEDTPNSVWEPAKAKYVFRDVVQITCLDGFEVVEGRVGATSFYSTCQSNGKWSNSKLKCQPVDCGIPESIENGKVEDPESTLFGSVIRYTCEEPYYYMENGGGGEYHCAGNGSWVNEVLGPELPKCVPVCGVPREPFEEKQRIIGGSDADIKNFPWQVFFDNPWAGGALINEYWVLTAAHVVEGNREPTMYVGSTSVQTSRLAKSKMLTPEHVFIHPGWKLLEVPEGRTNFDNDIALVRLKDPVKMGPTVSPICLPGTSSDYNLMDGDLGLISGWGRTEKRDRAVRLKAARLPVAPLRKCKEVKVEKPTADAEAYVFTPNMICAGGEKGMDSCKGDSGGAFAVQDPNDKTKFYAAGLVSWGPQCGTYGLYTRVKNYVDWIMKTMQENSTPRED


Assays:
[1] = target: T1, activated human complement C1s; assay: cell-based or functional assay
[2] = target: T1, activated human complement C1s; assay: competition binding to active C1s; competitor 50 pM biotinylated TNT005 (Biot-005)
Procedure: All 15 combinations (VH variant 1+Vk variant 1; VH variant 1+Vk variant 2; VH variant 1+Vk variant 5; VH variant 2+Vk variant 1; VH variant 2+Vk variant 2; VH variant 2+Vk variant 5; VH variant 3+Vk variant 1; VH variant 3+Vk variant 2; VH variant 3+Vk variant 5; VH variant 4+Vk variant 1; VH variant 4+Vk variant 2; VH variant 4+Vk variant 5; VH variant 5+Vk variant 1; VH variant 5+Vk variant 2; VH variant 5+Vk variant 5) were produced. Each humanized variant was tested for the ability to compete with biotinylated TNT005 for binding to active C1s.

[3] = target: T1, activated human complement C1s; assay: direct binding of antibody to activated C1s (aC1s); assay format not stated
[4] = target: T1, activated human complement C1s; assay: kinetic characterization of binding to active human C1s; instrument not stated; column head kdis
[5] = target: T1, activated human complement C1s; assay: kinetic characterization of binding to active human C1s; instrument not stated

Row | Binder | IC50 of classical complement pathway inhibition (commercial CP activation assay) [1] | IC50 [2] | EC50 [3] | koff [4] | Kd [5] | kon [5]
1 | TNT005.001 (antibody, V domains shown, Unlabelled parental antibody; also called parental TNT005 (not biotinylated)) VH: EVQLQQSGAELVRPGASVKLSCTASGFNIKDDYIHWVKQRPEQGLEWIGRIDPADGHTKYAPKFQVKATITADTSSNTAYLQLSSLTSEDTAVYYCARYGYGREVFDYWGQGTTLTVSS VL: DIVLTQSPASLAVSLGQRATISCKASQSVDYDGDSYMNWYQQKTGQPPKILIYDASNLESGIPARFSGSGSGTDFTLNIHPVEEEDAAIYYCQQSNEDPWTFGGGTKLEIK | 1.06 nM | 0.0395 nM | 0.0559 nM |  |  | 
2 | biotinylated TNT005 (antibody, V domains shown, Parental antibody; also called Biot-005; parental TNT005) VH: EVQLQQSGAELVRPGASVKLSCTASGFNIKDDYIHWVKQRPEQGLEWIGRIDPADGHTKYAPKFQVKATITADTSSNTAYLQLSSLTSEDTAVYYCARYGYGREVFDYWGQGTTLTVSS VL: DIVLTQSPASLAVSLGQRATISCKASQSVDYDGDSYMNWYQQKTGQPPKILIYDASNLESGIPARFSGSGSGTDFTLNIHPVEEEDAAIYYCQQSNEDPWTFGGGTKLEIK |  |  | 0.0828 nM |  |  | 
3 | humanized TNT005 variant VH variant 3+Vk variant 2 (antibody, V domains shown, also called VH variant 3 + VL variant 2) VH: QVQLVQSGAEVKKPGASVKLSCTASGFNIKDDYIHWVKQAPGQGLEWIGRIDPADGHTKYAPKFQVKVTITADTSTSTAYLELSSLRSEDTAVYYCARYGYGREVFDYWGQGTTVTVSS VL: DIVLTQSPDSLAVSLGERATISCKASQSVDYDGDSYMNWYQQKPGQPPKILIYDASNLESGIPARFSGSGSGTDFTLTISSLEPEDFAIYYCQQSNEDPWTFGGGTKVEIK | 1.26 nM | 0.183 nM | 0.163 nM | 0.00049 s⁻¹ | 0.585 nM | 838000 M⁻¹ s⁻¹
4 | humanized TNT005 variant VH variant 3+Vk variant 1 (antibody, V domains shown, also called VH variant 3 + VL variant 1) VH: QVQLVQSGAEVKKPGASVKLSCTASGFNIKDDYIHWVKQAPGQGLEWIGRIDPADGHTKYAPKFQVKVTITADTSTSTAYLELSSLRSEDTAVYYCARYGYGREVFDYWGQGTTVTVSS VL: DIVLTQSPDSLAVSLGERATISCKASQSVDYDGDSYMNWYQQKTGQPPKILIYDASNLESGIPARFSGSGSGTDFTLTISSLEEEDFAIYYCQQSNEDPWTFGGGTKVEIK | 1.27 nM | 0.179 nM | 0.168 nM |  |  | 
5 | humanized TNT005 variant VH variant 5+Vk variant 2 (antibody, V domains shown, also called VH variant 5 + VL variant 2) VH: QVQLVQSGAEVKKPGASVKVSCAASGFNIKDDYIHWVRQAPGQGLEWIGRIDPADGHTKYAPKFQVKVTITADTSTSTAYMELSSLRSEDTAVYYCARYGYGREVFDYWGQGTTVTVSS VL: DIVLTQSPDSLAVSLGERATISCKASQSVDYDGDSYMNWYQQKPGQPPKILIYDASNLESGIPARFSGSGSGTDFTLTISSLEPEDFAIYYCQQSNEDPWTFGGGTKVEIK | 1.31 nM | 0.148 nM | 0.164 nM |  |  | 
6 | humanized TNT005 variant VH variant 5+Vk variant 5 (antibody, V domains shown, also called VH variant 5 + VL variant 5) VH: QVQLVQSGAEVKKPGASVKVSCAASGFNIKDDYIHWVRQAPGQGLEWIGRIDPADGHTKYAPKFQVKVTITADTSTSTAYMELSSLRSEDTAVYYCARYGYGREVFDYWGQGTTVTVSS VL: DIVLTQSPDSLAVSLGERATISCKASQSVDYDGDSYMNWYQQKPGQPPKLLIYDASNLESGIPARFSGSGSGTDFTLTISSLEPEDFAVYYCQQSNEDPWTFGGGTKVEIK | 1.33 nM | 0.137 nM | 0.165 nM |  |  | 
7 | humanized TNT005 variant VH variant 4+Vk variant 1 (antibody, V domains shown, also called VH variant 4 + VL variant 1) VH: QVQLVQSGAEVKKPGASVKVSCTASGFNIKDDYIHWVRQAPGQGLEWIGRIDPADGHTKYAPKFQVKVTITADTSTSTAYMELSSLRSEDTAVYYCARYGYGREVFDYWGQGTTVTVSS VL: DIVLTQSPDSLAVSLGERATISCKASQSVDYDGDSYMNWYQQKTGQPPKILIYDASNLESGIPARFSGSGSGTDFTLTISSLEEEDFAIYYCQQSNEDPWTFGGGTKVEIK | 1.35 nM | 0.152 nM | 0.152 nM |  |  | 
8 | humanized TNT005 variant VH variant 1+Vk variant 5 (antibody, V domains shown, also called VH variant 1 + VL variant 5) VH: EVQLVQSGAELKKPGASVKLSCTASGFNIKDDYIHWVKQAPGQGLEWIGRIDPADGHTKYAPKFQVKATITADTSTNTAYLQLSSLTSEDTAVYYCARYGYGREVFDYWGQGTTVTVSS VL: DIVLTQSPDSLAVSLGERATISCKASQSVDYDGDSYMNWYQQKPGQPPKLLIYDASNLESGIPARFSGSGSGTDFTLTISSLEPEDFAVYYCQQSNEDPWTFGGGTKVEIK | 1.26 nM | 0.129 nM | 0.107 nM | 0.000168 s⁻¹ | 0.217 nM | 776000 M⁻¹ s⁻¹
9 | humanized TNT005 variant VH variant 4+Vk variant 2 (antibody, V domains shown, also called VH variant 4 + VL variant 2) VH: QVQLVQSGAEVKKPGASVKVSCTASGFNIKDDYIHWVRQAPGQGLEWIGRIDPADGHTKYAPKFQVKVTITADTSTSTAYMELSSLRSEDTAVYYCARYGYGREVFDYWGQGTTVTVSS VL: DIVLTQSPDSLAVSLGERATISCKASQSVDYDGDSYMNWYQQKPGQPPKILIYDASNLESGIPARFSGSGSGTDFTLTISSLEPEDFAIYYCQQSNEDPWTFGGGTKVEIK | 1.31 nM | 0.158 nM | 0.119 nM |  |  | 
10 | humanized TNT005 variant VH variant 3+Vk variant 5 (antibody, V domains shown, also called VH variant 3 + VL variant 5) VH: QVQLVQSGAEVKKPGASVKLSCTASGFNIKDDYIHWVKQAPGQGLEWIGRIDPADGHTKYAPKFQVKVTITADTSTSTAYLELSSLRSEDTAVYYCARYGYGREVFDYWGQGTTVTVSS VL: DIVLTQSPDSLAVSLGERATISCKASQSVDYDGDSYMNWYQQKPGQPPKLLIYDASNLESGIPARFSGSGSGTDFTLTISSLEPEDFAVYYCQQSNEDPWTFGGGTKVEIK | 1.38 nM | 0.158 nM | 0.138 nM |  |  | 
11 | humanized TNT005 variant VH variant 4+Vk variant 5 (antibody, V domains shown, also called VH variant 4 + VL variant 5) VH: QVQLVQSGAEVKKPGASVKVSCTASGFNIKDDYIHWVRQAPGQGLEWIGRIDPADGHTKYAPKFQVKVTITADTSTSTAYMELSSLRSEDTAVYYCARYGYGREVFDYWGQGTTVTVSS VL: DIVLTQSPDSLAVSLGERATISCKASQSVDYDGDSYMNWYQQKPGQPPKLLIYDASNLESGIPARFSGSGSGTDFTLTISSLEPEDFAVYYCQQSNEDPWTFGGGTKVEIK | 1.54 nM | 0.156 nM | 0.205 nM |  |  | 
12 | humanized TNT005 variant VH variant 1+Vk variant 1 (antibody, V domains shown, also called VH variant 1 + VL variant 1) VH: EVQLVQSGAELKKPGASVKLSCTASGFNIKDDYIHWVKQAPGQGLEWIGRIDPADGHTKYAPKFQVKATITADTSTNTAYLQLSSLTSEDTAVYYCARYGYGREVFDYWGQGTTVTVSS VL: DIVLTQSPDSLAVSLGERATISCKASQSVDYDGDSYMNWYQQKTGQPPKILIYDASNLESGIPARFSGSGSGTDFTLTISSLEEEDFAIYYCQQSNEDPWTFGGGTKVEIK | 1.2 nM | 0.124 nM | 0.201 nM | 0.000197 s⁻¹ | 0.228 nM | 864000 M⁻¹ s⁻¹
13 | humanized TNT005 variant VH variant 1+Vk variant 2 (antibody, V domains shown, also called VH variant 1 + VL variant 2) VH: EVQLVQSGAELKKPGASVKLSCTASGFNIKDDYIHWVKQAPGQGLEWIGRIDPADGHTKYAPKFQVKATITADTSTNTAYLQLSSLTSEDTAVYYCARYGYGREVFDYWGQGTTVTVSS VL: DIVLTQSPDSLAVSLGERATISCKASQSVDYDGDSYMNWYQQKPGQPPKILIYDASNLESGIPARFSGSGSGTDFTLTISSLEPEDFAIYYCQQSNEDPWTFGGGTKVEIK | 1.14 nM | 0.0557 nM | 0.088 nM | 0.00017 s⁻¹ | 0.208 nM | 818000 M⁻¹ s⁻¹
